According to the supplement of paper PMC10567573:
± gives the standard deviation.

Assay: protein stability index of a GFP-peptide fusion (GPS, HEK-293T) (PSI 1-6); higher = more stable
[1] = treatment: DMSO, c terminus: a fixed tail appended
[2] = treatment: MLN4924 1 uM, 8 h, c terminus: a fixed tail appended
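Further: 24-mer peptide tiles fused after GFP, lentivirally expressed, FACS-sorted into six equal bins by GFP/DsRed ratio, decoded by Illumina sequencing, PSI is the read-weighted mean bin number.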

Sequence REVKVLLDQLRFPNGVQLSPAEDF [APMAP] has a protein stability index [1] of 2.97 ± 0.4 and a protein stability index [2] of 2.95 ± 0.5.

Work on PRVPEEAAQDRPMSPGDCPPETTE [YJU2B] yielded a protein stability index [1] of 5.46 ± 0.26 and a protein stability index [2] of 5.4 ± 0.37.

YTYEKLLWTTSRVLKVLSVCSSNK [CTNNB1] gave a protein stability index [1] of 2.47 ± 0.36 and a protein stability index [2] of 2.22 ± 0.43.

For WEQTHLTYRIENYTPDLPRADVDH [MMP1], the protein stability index [1] was 3.95 ± 0.31 and the protein stability index [2] was 3.53 ± 0.3.

Sequence YQKILAGKIDFPRHLDFHVKDLIK [PRKX] has a protein stability index [1] of 2.19 ± 0.97 and a protein stability index [2] of 2.1 ± 0.4.

Sequence ITQSWQVSVRVQPRGRAHLLPNPY [C22orf15] has a protein stability index [1] of 2.59 ± 0.83 and a protein stability index [2] of 3.36 ± 0.85.

STQMFQTKRCFRLAPTFSNLLLQP [SMG5] showed a protein stability index [1] of 2.16 ± 0.4 and a protein stability index [2] of 2.12 ± 0.2.

LPAEARERSRGRSISRGRHARTHP [MATN2] showed a protein stability index [1] of 5.05 ± 0.5 and a protein stability index [2] of 5.17 ± 0.23.

With TPPLKNVRKKRFRKTQKKVPDVKE [TAF7L] the protein stability index [1] was 4.84 ± 0.37 and the protein stability index [2] was 4.73 ± 0.22.

MYLKQLAEYRKYIHSRKCRCLVM [RHOBTB3] gave a protein stability index (treatment: DMSO, c terminus: native) of 1.95 ± 0.5 and a protein stability index (treatment: MLN4924 1 uM, 8 h, c terminus: native) of 2 ± 0.33.

Work on GELSQARGQEPARADQLCQQELRE [PRPH] yielded a protein stability index [1] of 5.26 ± 0.56 and a protein stability index [2] of 5.56 ± 0.085.

For EGLYEQAFQLLRRFVQAEGRRATL [TRADD], the protein stability index [1] was 2.28 ± 0.13 and the protein stability index [2] was 2.23 ± 0.54.

Sequence SRRFEAVGWWALLALVTLLSFATR [POMT2] has a protein stability index [1] of 2.29 ± 0.28 and a protein stability index [2] of 2.09 ± 0.33.

With CHCLKGFTLNPDKKTCRRINYCAL [MATN2] the protein stability index [1] was 2.5 ± 0.24 and the protein stability index [2] was 2.14 ± 0.18.

Work on LTYINEDRISTTFRLTTLLMSGCS [PLK2] yielded a protein stability index [1] of 2.74 ± 0.63 and a protein stability index [2] of 2.56 ± 0.45.

In the case of PDQLPQNNTLVALPIVAIENILSF [FBXO28], the protein stability index [1] is reported as 2.34 ± 0.24 and the protein stability index [2] is reported as 2.38 ± 0.27.

With MDSKDVEVSSIQVRRKPQHGVCSQ [SERPINB9P1] the protein stability index [1] was 4.47 ± 0.13 and the protein stability index [2] was 4.64 ± 0.22.

For LEMCVDARTFGNEARFIRRSCTPN [KMT2E], the protein stability index [1] was 3.19 ± 0.21 and the protein stability index [2] was 3.13 ± 0.16.

With DDATLSRLELERKIESLMDEIEFL [PRPH] the protein stability index [1] was 4 ± 0.23 and the protein stability index [2] was 3.88 ± 0.28.

For CANFGDQGITMGCWDMYRHDIDCQ [LOXL2], the protein stability index [1] was 2.42 ± 0.29 and the protein stability index [2] was 2.6 ± 0.57.

Work on DDRVLSSLVRDTIARVHGTFGAAA [POP5] yielded a protein stability index [1] of 2.89 ± 0.29 and a protein stability index [2] of 2.96 ± 0.23.

In the case of PRNSCITCPQCHRSLILDDRGLRG [TRIM9], the protein stability index [1] is reported as 2.58 ± 0.27 and the protein stability index [2] is reported as 3 ± 0.45.

DEDDVDQELANIDPTWIESPKTNG [SRPK2] showed a protein stability index [1] of 5.23 ± 0.63 and a protein stability index [2] of 5.2 ± 0.36.

With EIKLVSDVTADSKVLEALKLKGAE [PLD5] the protein stability index [1] was 4.31 ± 0.41 and the protein stability index [2] was 4.34 ± 0.51.

TYEPFCKVPVITSSKEEQKLIATS [KCTD10] gave a protein stability index [1] of 4.27 ± 0.2 and a protein stability index [2] of 4.16 ± 0.37.

With WNDLRPKLSCLFAGPHSTLTPPCS [SNX8] the protein stability index [1] was 2.27 ± 0.29 and the protein stability index [2] was 2.27 ± 0.39.

Sequence GLDIGAQGEPLGYRQDDPSYRSFH [CTNNB1] has a protein stability index [1] of 4.14 ± 0.12 and a protein stability index [2] of 4.22 ± 0.19.

For RYDPEPKSKWDEEWDKNKSAFPFS [CLINT1], the protein stability index [1] was 3.84 ± 0.36 and the protein stability index [2] was 3.89 ± 0.21.

In the case of FQAPCQRCGKFLQDGLPPTWRDFR [MED27], the protein stability index [1] is reported as 2.56 ± 0.72 and the protein stability index [2] is reported as 2.28 ± 0.33.

With GTPKDHDSPENGADSFESSDSLLQ [ETS2] the protein stability index [1] was 5.46 ± 0.23 and the protein stability index [2] was 5.47 ± 0.23.

In the case of RFYRSPEVLLGTPYDLAIDMWSLG [DYRK1B], the protein stability index [1] is reported as 1.78 ± 0.42 and the protein stability index [2] is reported as 2.29 ± 0.35.

With SELSESAFGYFITACAVIILTIIC [SLC29A1] the protein stability index [1] was 2.03 ± 0.21 and the protein stability index [2] was 2.12 ± 0.39.

TVQSRPRIDGKLDSPSRSPSKVEV [C2CD2L] gave a protein stability index [1] of 4.78 ± 0.21 and a protein stability index [2] of 4.65 ± 0.37.

For FLGLFFIVRFLESNWFVWVTQMNH [FADS1], the protein stability index [1] was 3.69 ± 0.72 and the protein stability index [2] was 3.25 ± 0.32.

RYALQLQQIQGLISSIEAQLSELR [KRT13] gave a protein stability index [1] of 3.17 ± 0.14 and a protein stability index [2] of 3.38 ± 0.35.

FNMMEQKKRVSMILQSPAFCEELE [ADD1] gave a protein stability index [1] of 3.27 ± 0.088 and a protein stability index [2] of 3.4 ± 0.11.

In the case of PISPSTEVGGSGIGTPPSVLKRQR [MYBL2], the protein stability index [1] is reported as 5.36 ± 0.24 and the protein stability index [2] is reported as 4.97 ± 0.36.

YLLHPAAFHGAPSHLPTRSPSFPE [TBX6] showed a protein stability index [1] of 2.49 ± 0.28 and a protein stability index [2] of 2.87 ± 0.26.

In the case of MGQHISLAPIHKLEEALYEYQPLQ [MNAT1], the protein stability index [1] is reported as 3 ± 0.29 and the protein stability index [2] is reported as 3 ± 0.048.

With EEEPGVRNGMASEGLNSSLCSPGH [PSD2] the protein stability index [1] was 5.1 ± 0.23 and the protein stability index [2] was 5.26 ± 0.13.

Work on WMENNGHVAGEQMLEDGPHNANRG [CCDC70] yielded a protein stability index [1] of 5.23 ± 0.39 and a protein stability index [2] of 5.25 ± 0.14.

For PPRQALGSLCSPWAAPRVGPLPPA [YPEL3], the protein stability index [1] was 3.16 ± 0.51 and the protein stability index [2] was 3.2 ± 0.44.

Sequence KEAVQNERDRISTRRSSYEDSSLP [HNF4A] has a protein stability index [1] of 5.07 ± 0.31 and a protein stability index [2] of 5.14 ± 0.25.

In the case of GVEEIKGHPFFEGVDWEHIRERPA [STK38L], the protein stability index [1] is reported as 3.97 ± 0.8 and the protein stability index [2] is reported as 4.32 ± 0.37.

Work on LLELQSQQACTHTKETEQLRSQLQ [CCDC89] yielded a protein stability index [1] of 4.06 ± 0.32 and a protein stability index [2] of 4.29 ± 0.25.

MGNILTCCINSHCGWPRGKDAPCY [DRICH1] gave a protein stability index [1] of 2.44 ± 0.39 and a protein stability index [2] of 2.08 ± 0.15.

In the case of MDMDQDSEEEKELYLNLALHLASD [PDS5B], the protein stability index [1] is reported as 3.82 ± 0.23 and the protein stability index [2] is reported as 4.04 ± 0.081.

In the case of AKQKLDFFIRTSDSFDKFDFCEPS [PCMTD2], the protein stability index [1] is reported as 2.87 ± 0.26 and the protein stability index [2] is reported as 3.02 ± 0.47.

Sequence ESDSQGQGNGLFYSSGPQSWYPKA [ZC2HC1C] has a protein stability index [1] of 3.62 ± 0.32 and a protein stability index [2] of 3.72 ± 0.34.

With YQETISDVLNDAIFDEDHDEMVIV [GCH1] the protein stability index [1] was 3.98 ± 0.09 and the protein stability index [2] was 4.02 ± 0.25.

NGIHVCMVFEVLGHHLLKWIIKSN [SRPK2] gave a protein stability index [1] of 3.01 ± 0.14 and a protein stability index [2] of 2.96 ± 0.29.

PCSFVCWYRPMYKAFRSDSSFNFF [SCAMP3] showed a protein stability index [1] of 2.86 ± 0.77 and a protein stability index [2] of 2.6 ± 0.5.

DTSKQKKMETMYPFIVTLEGNALQ [ZNF449] gave a protein stability index [1] of 3.12 ± 0.34 and a protein stability index [2] of 2.85 ± 0.12.

Work on CFALIPKAPKKDVIKMLVNDNKVL [EFHC1] yielded a protein stability index [1] of 2.28 ± 0.44 and a protein stability index [2] of 2.43 ± 0.53.

In the case of QQLLHHARNGNAEEVRQLLETMAR [OSBPL1A], the protein stability index [1] is reported as 3.15 ± 0.38 and the protein stability index [2] is reported as 3.78 ± 0.3.

Work on VSEAGGSGRLSASWEPLSGPSTPS [FCHO1] yielded a protein stability index [1] of 4.54 ± 0.17 and a protein stability index [2] of 4.74 ± 0.2.

Sequence KQQRNEVSFVIHNLPIIAKMAAVS [SEPHS2] has a protein stability index [1] of 2.51 ± 0.61 and a protein stability index [2] of 2.35 ± 0.36.

In the case of GARAALNEIESRHRELLRLESRIR [STX11], the protein stability index [1] is reported as 3.46 ± 0.26 and the protein stability index [2] is reported as 3.72 ± 0.35.

SIGRRRTELRRSGSSRSPGSKARA [PLEKHN1] showed a protein stability index [1] of 4.88 ± 0.47 and a protein stability index [2] of 4.95 ± 0.27.

Sequence PEVILELGWAQPCDVWSIGCILFE [CLK3] has a protein stability index [1] of 2.63 ± 0.5 and a protein stability index [2] of 3.55 ± 1.

With PDDYRCSYRIHNGQKLVVPGLLGS [FBXO3] the protein stability index [1] was 2.68 ± 0.46 and the protein stability index [2] was 2.66 ± 0.34.

APIRVRNLTIRAGALTGKENNMLQ [DMRTC1] showed a protein stability index [1] of 3.46 ± 0.23 and a protein stability index [2] of 3.26 ± 0.19.

For LGLGSMIGTMAGITTPIIDTFKVP [SLC6A17], the protein stability index [1] was 2.55 ± 0.12 and the protein stability index [2] was 2.51 ± 0.31.

Sequence NKPAVKLLYNRSNNKYSYTSNSDD [KCTD10] has a protein stability index [1] of 4.1 ± 0.1 and a protein stability index [2] of 4.03 ± 0.31.

Work on AGNDPYCFVEFHEHRHAAAALAAM [TIA1] yielded a protein stability index [1] of 2.66 ± 0.17 and a protein stability index [2] of 2.7 ± 0.25.
